Measurements from patent publication US20250011363A1, “OPTIMIZED SHORTENED PEPTIDE THAT BINDS TO ACETYLCHOLINE RECEPTOR, AND USE THEREOF” (SKINMED CO., LTD., priority 2021, published 2025).

Each substance was assayed against acetylcholine receptor (Homo sapiens, UniProt P02708) (assay: SPR binding affinity (RU) of optimized 5mer/6mer/7mer peptides, Examples 6-7). Conditions: SPR, peptides tested at 10 μM; 5mer Top sequence.
Description: Based on the frequencies of occurrence of the top 7 amino acids from Table 7 in Example 5, 600 peptides comprising these amino acids (top combinations) and those comprising the 13 less frequently occurring amino acids (bottom combinations) were synthesized for each series of 5mer, 6mer-1, and 6mer-2. The binding affinity of each sequence for the acetylcholine receptor was measured using Surface Plasmon Resonance (SPR) analysis method. The peptides were tested at a concentration of 10 μM. Additionally, the average binding affinities of the top and bottom combinations in each series are depicted in FIGS. 5-7.
Representative peptides identified in Example 6, two in each library, including 5mers (73, 311) and 6mers-1 (43, 210) and 6mers-2 (136, 233), were compared with the pre-optimized 6mer, 5mer-ND, and Synake.

Chain of acetylcholine receptor (P02708 21-457): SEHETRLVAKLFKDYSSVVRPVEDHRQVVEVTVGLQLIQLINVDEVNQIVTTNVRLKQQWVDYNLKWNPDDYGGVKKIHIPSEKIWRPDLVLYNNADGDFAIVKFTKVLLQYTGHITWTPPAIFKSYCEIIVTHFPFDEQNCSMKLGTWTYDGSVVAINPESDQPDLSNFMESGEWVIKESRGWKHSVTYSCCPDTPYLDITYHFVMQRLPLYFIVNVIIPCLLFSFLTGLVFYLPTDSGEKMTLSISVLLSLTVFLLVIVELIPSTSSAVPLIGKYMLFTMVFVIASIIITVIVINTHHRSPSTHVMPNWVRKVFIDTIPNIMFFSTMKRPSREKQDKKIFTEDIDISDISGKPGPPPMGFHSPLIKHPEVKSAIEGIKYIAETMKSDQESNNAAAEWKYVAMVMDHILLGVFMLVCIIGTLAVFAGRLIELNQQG

Compared with 5mer-1 (RVQCK), 5mer-2 (KRISR) is higher in Binding affinity: 54 Ru for the first, 80 Ru for the second.

Compared with 5mer-3 (KRVLK), 5mer-4 (KRFLR) is lower in Binding affinity: 66 Ru for the first, 58 Ru for the second.

Compared with 5mer-5 (KLFLR), 5mer-6 (RWQQK) is higher in Binding affinity: 54 Ru for the first, 61 Ru for the second.

Going from 5mer-7 (RQLTK) to 5mer-8 (RQRSR), the Binding affinity falls from 54 Ru to 51 Ru.

Compared with 5mer-9 (RGVQR), 5mer-10 (RVQRR) is lower in Binding affinity: 77 Ru for the first, 55 Ru for the second.

First: 5mer-11 (KQRLR)
Second: 5mer-12 (RVFLR)
The Binding affinity of the first is higher: 84 Ru for the first, 70 Ru for the second.

First: 5mer-13 (RLISK)
Second: 5mer-14 (RWLCK)
The Binding affinity of the first is lower: 52 Ru for the first, 63 Ru for the second.

Going from 5mer-15 (KGVCK) to 5mer-16 (KLYTK), the Binding affinity falls from 75 Ru to 66 Ru.

Going from 5mer-17 (KRIYK) to 5mer-18 (RQLRR), the Binding affinity falls from 70 Ru to 69 Ru.

Going from 5mer-19 (KRFQR) to 5mer-20 (RGRYK), the Binding affinity rises from 72 Ru to 78 Ru.

Going from 5mer-21 (KWFTR) to 5mer-22 (RQQLK), the Binding affinity rises from 63 Ru to 66 Ru.

First: 5mer-23 (KWLYK)
Second: 5mer-24 (KSQCR)
The Binding affinity of the first is higher: 86 Ru for the first, 67 Ru for the second.

Compared with 5mer-25 (KVVYK), 5mer-26 (RQQQR) is higher in Binding affinity: 60 Ru for the first, 65 Ru for the second.

Going from 5mer-27 (KGYLR) to 5mer-28 (RLLSR), the Binding affinity rises from 67 Ru to 74 Ru.

Compared with 5mer-29 (KGFCR), 5mer-30 (KSQLR) is higher in Binding affinity: 63 Ru for the first, 70 Ru for the second.

Going from 5mer-31 (RRLQR) to 5mer-32 (RQLSR), the Binding affinity rises from 65 Ru to 75 Ru.

First: 5mer-33 (RRISK)
Second: 5mer-34 (KRIRK)
The Binding affinity of the first is lower: 59 Ru for the first, 82 Ru for the second.

Going from 5mer-35 (RWQYK) to 5mer-36 (RRLQK), the Binding affinity falls from 80 Ru to 60 Ru.

First: 5mer-37 (RRLSR)
Second: 5mer-38 (RGYCK)
The Binding affinity of the first is higher: 72 Ru for the first, 53 Ru for the second.

5mer-39 (KQVSR) and 5mer-40 (KSVCR) are the same in Binding affinity: 67 Ru for the first, 67 Ru for the second.

First: 5mer-41 (KVISK)
Second: 5mer-42 (RQRLR)
The Binding affinity of the first is lower: 82 Ru for the first, 83 Ru for the second.

First: 5mer-43 (KSFYR)
Second: 5mer-44 (RSRTR)
The Binding affinity of the first is lower: 53 Ru for the first, 59 Ru for the second.

First: 5mer-45 (RVFQR)
Second: 5mer-46 (KRQCK)
The Binding affinity of the first is higher: 86 Ru for the first, 76 Ru for the second.

Compared with 5mer-47 (KGVRR), 5mer-48 (RVYLR) is lower in Binding affinity: 70 Ru for the first, 62 Ru for the second.

Going from 5mer-49 (KWRTR) to 5mer-50 (KLLCR), the Binding affinity rises from 62 Ru to 63 Ru.

Going from 5mer-51 (RSLQR) to 5mer-52 (RQQYK), the Binding affinity falls from 70 Ru to 50 Ru.

Going from 5mer-53 (RLVTR) to 5mer-54 (KWLQR), the Binding affinity rises from 50 Ru to 66 Ru.

First: 5mer-55 (RRFSR)
Second: 5mer-56 (KRFCK)
The Binding affinity of the first is lower: 58 Ru for the first, 59 Ru for the second.

First: 5mer-57 (KQLYR)
Second: 5mer-58 (KWVSK)
The Binding affinity of the first is lower: 73 Ru for the first, 75 Ru for the second.

Going from 5mer-59 (KLQYR) to 5mer-60 (RLFTK), the Binding affinity rises from 68 Ru to 86 Ru.

Going from 5mer-61 (RLILK) to 5mer-62 (KQLTK), the Binding affinity rises from 66 Ru to 70 Ru.

First: 5mer-63 (RLLRK)
Second: 5mer-64 (KVVTR)
The Binding affinity of the first is higher: 86 Ru for the first, 76 Ru for the second.

First: 5mer-65 (RQIRR)
Second: 5mer-66 (KRLLR)
The Binding affinity of the first is lower: 67 Ru for the first, 80 Ru for the second.

Compared with 5mer-67 (RQLYR), 5mer-68 (RGFYK) is lower in Binding affinity: 86 Ru for the first, 82 Ru for the second.

Going from 5mer-69 (RSRSR) to 5mer-70 (RLLQR), the Binding affinity rises from 50 Ru to 69 Ru.

Going from 5mer-71 (KLQSK) to 5mer-72 (KLYRR), the Binding affinity falls from 68 Ru to 50 Ru.

First: 5mer-74 (RQITK)
Second: 5mer-75 (KVQTK)
The Binding affinity of the first is higher: 87 Ru for the first, 63 Ru for the second.

Going from 5mer-76 (RGYRR) to 5mer-77 (KWRQK), the Binding affinity falls from 80 Ru to 74 Ru.

Compared with 5mer-78 (KVICK), 5mer-79 (RWFLR) is higher in Binding affinity: 79 Ru for the first, 82 Ru for the second.

Compared with 5mer-80 (KSRTR), 5mer-81 (RGIYR) is lower in Binding affinity: 83 Ru for the first, 79 Ru for the second.

Compared with 5mer-82 (RQRYK), 5mer-83 (KGFSR) is lower in Binding affinity: 84 Ru for the first, 64 Ru for the second.

Going from 5mer-84 (RVVRR) to 5mer-85 (KGVLK), the Binding affinity rises from 67 Ru to 74 Ru.

5mer-86 (RRLCK) and 5mer-87 (RQITR) are the same in Binding affinity: 55 Ru for the first, 55 Ru for the second.

Compared with 5mer-88 (RRVQK), 5mer-89 (KRITK) is higher in Binding affinity: 73 Ru for the first, 77 Ru for the second.

Going from 5mer-90 (RWYTK) to 5mer-91 (RQIQK), the Binding affinity falls from 86 Ru to 55 Ru.

Compared with 5mer-92 (RVRLK), 5mer-93 (KWVYR) is higher in Binding affinity: 62 Ru for the first, 79 Ru for the second.

Going from 5mer-94 (RWFQR) to 5mer-95 (RGRRK), the Binding affinity rises from 50 Ru to 68 Ru.

Compared with 5mer-96 (RVLYR), 5mer-97 (KRQLR) is lower in Binding affinity: 55 Ru for the first, 52 Ru for the second.

First: 5mer-98 (KWYCK)
Second: 5mer-99 (RWICK)
The Binding affinity of the first is higher: 68 Ru for the first, 58 Ru for the second.

Compared with 5mer-100 (KVIRK), 5mer-101 (RQQYR) is lower in Binding affinity: 80 Ru for the first, 55 Ru for the second.

First: 5mer-102 (RGFSK)
Second: 5mer-103 (RWFLK)
The Binding affinity of the first is higher: 82 Ru for the first, 62 Ru for the second.

First: 5mer-104 (RVVLK)
Second: 5mer-105 (RGQQR)
The Binding affinity of the first is higher: 74 Ru for the first, 50 Ru for the second.

First: 5mer-106 (KLLQR)
Second: 5mer-107 (RWVSR)
The Binding affinity of the first is higher: 78 Ru for the first, 56 Ru for the second.

Going from 5mer-108 (KWQLK) to 5mer-109 (RLQCR), the Binding affinity falls from 77 Ru to 68 Ru.

First: 5mer-110 (KRRLK)
Second: 5mer-111 (KSVLK)
The Binding affinity of the first is lower: 76 Ru for the first, 85 Ru for the second.

First: 5mer-112 (KRYYR)
Second: 5mer-113 (KRLRK)
The Binding affinity of the first is lower: 58 Ru for the first, 79 Ru for the second.

Compared with 5mer-114 (KRQRR), 5mer-115 (RWLLR) is lower in Binding affinity: 82 Ru for the first, 75 Ru for the second.

First: 5mer-116 (RWRSK)
Second: 5mer-117 (RSVYK)
The Binding affinity of the first is lower: 64 Ru for the first, 69 Ru for the second.

First: 5mer-118 (RVICK)
Second: 5mer-119 (KQIRK)
The Binding affinity of the first is higher: 87 Ru for the first, 60 Ru for the second.

First: 5mer-120 (RQILK)
Second: 5mer-121 (RQVTR)
The Binding affinity of the first is lower: 68 Ru for the first, 73 Ru for the second.

Going from 5mer-122 (RSYQK) to 5mer-123 (KWIRR), the Binding affinity falls from 78 Ru to 53 Ru.

Compared with 5mer-124 (KGFSK), 5mer-125 (RVRQK) is higher in Binding affinity: 58 Ru for the first, 67 Ru for the second.

Going from 5mer-126 (RGVTK) to 5mer-127 (RWVTK), the Binding affinity rises from 61 Ru to 86 Ru.

Compared with 5mer-128 (RGVCR), 5mer-129 (KSLLK) is higher in Binding affinity: 56 Ru for the first, 63 Ru for the second.

First: 5mer-130 (RRFRK)
Second: 5mer-131 (KLRRR)
The Binding affinity of the first is higher: 80 Ru for the first, 72 Ru for the second.

5mer-132 (RVRCK) showed a Binding affinity of 83 Ru.
